Reference: patent US20050182242A1, “Global analysis of protein activities using proteome chips” (priority 2001, published 2005)

How the values were obtained:
Type in all cases: binding
calmodulin = molecular target: T1, calmodulin (Homo sapiens, UniProt P0DP23); test: Yeast proteome chip probed with biotinylated calmodulin; details: biotinylated calmodulin in the presence of calcium
T1 construct: purchased CalBiochem, USA
Excerpt: To test for protein-protein interactions, the yeast proteome was probed with calmodulin (11). Calmodulin is a highly conserved calcium-binding protein involved in many calcium-regulated cellular processes and has many known physical partners (Hook et al., 2001, Annu. Rev. Pharmacol. Toxicol. 41:471). The calmodulin probe was biotinylated, and bound probe was detected using Cy3-labeled streptavidin. As a control, the yeast proteome was probed with Cy3-labeled streptavidin alone.
Generally, protein-protein interactions can be assayed as follows. Blocked proteome chips are washed three to five times in PBS buffer, and the extra liquid on the glass surface is removed by tapping the slides vertically on a KIMWIPE™. 200 ∞l of biotinylated protein probe is added to the proteome chip and immediately covered by a hydrophobic plastic cover slip (GRACE BIO-LABS™, USA). After trapped air bubbles are removed, the chip is incubated in a humidity chamber at room temperature (RT) for one hour. To remove the cover slip, the chip is immersed into large volume of PBS buffer (>50 ml), and the slip should float away. The chip is then moved to a second PBS bath (>50 ml) and washed 3×5 min with shaking at RT. After removing extra liquid on the surface of the chip, at least 150 μl of Cy3- or Cy5-conjugated streptavidin (PIERCE™, USA; 1:2000 to 1:4000 dilution) is added to the surface and covered by a hydrophobic plastic cover slip (GRACE BIO-LABS™, USA). The chip is incubated for greater than 30 min in the dark at RT. The chip is then washed as described above. To completely remove the liquid on the chip, the chip is spun to dryness at 1500-2000 rpm for 5-10 min at RT.
• 1. S. Fields, Y. Kohara, D. J. Lockhart, Proc. Natl. Acad. Sci. 96, 8825 (1999); A. Goffeau et al., Science 274, 563 (1996). • 2 P. Ross-Macdonald et al., Nature 402, 413 (1999); J. L., DeRisi, V. R. Iyer, P. O. Brown, Science 278, 680 (1997); E. A. Winzeler et al., Science 285, 901 (1999). P. Uetz et al., Nature 403, 623 (2000); T. Ito et al., Proc. Natl. Acad. Sci. USA. 97, 1143 (2000) • 3 H. Zhu, M. Snyder, Curr. Opin. Chem. Biol. 5, 40 (2001). • 4 M. R. Martzen et al., Science 286, 1153 (1999). • 5 H. Zhu et al., Nat. Genet. 26, 283 (2000). • 6 G. MacBeath, S. L. Schreiber, Science 289, 1760 (2000). • 7 A. Caveman, J. Cell Sci. 113, 3543 (2000). • 8 P. Arenkov et al., Anal. Biochem 278, 123 (2000). • 9 D. A. Mitchell, T. K. Marshall, R. J. Deschenes, Yeast 9, 715 (1993). The expression vector pEGH was created by inserting an RGS-HisX6 epitope tag between the GST gene and the polycloning site of pEG(KG). The yeast ORFs were cloned using the strategy described previously (5), except every step was done in a 96-well format. Plasmid DNAs confirmed by DNA sequencing were reintroduced into both yeast (Y258) and E. coli (DH5a). […] 0.1 mM calcium was present in buffers in all subsequent steps. The chip was washed three times with PBS at RT. Cy3-conjugated streptavidin (Jackson IR, USA) (1:5000 dilution) was added to the chip and incubated for 30 min at RT. After extensive washing, the chip was spun dry and scanned using a microarray scanner; the data was subsequently acquired with the GENEPIX™ array densitometry software (Axon, USA). • 12 S. S. Hook, A. R. Means, Annu. Rev. […]

total yeast genomic DNA = test: Yeast proteome chip probed with labeled genomic DNA; details: Cy3-labeled genomic DNA, visual inspection
Excerpt: (§1) Protein-DNA and protein-RNA interactions are important for many fundamental biological functions such as transcription regulation, chromosome segregation and maintenance, and RNA transport and processing (Williamson, 2000, Nat. Struct. Biol. 7(10):834-7). To explore the possibility of using a proteome chip to identify proteins that bind to DNA or RNA molecules, total yeast genomic DNA was labeled using Cy3-CTP and Klenow fragment, and polyA^+ was labeled using a biotinylated psoralen-derivative (31). Each probe was incubated with a different proteome chip (FIG. 3A).
(§2) The protein-nucleic acid interaction was assayed as follows. The nucleic acid robes were labeled as described by Winzeler et al. (1999, Science 285:901). Blocked proteome chips were washed three to five times in PBS buffer, and the extra liquid on the glass surface was removed by tapping the slides vertically on a KIMWIPE™. 200 μl of labeled nuclei acid probe ([…] poly(dC/dG); 100-300 mM NaCl; 50-300 mM HEPES, pH 7.0-8.5; 10 mM MgCl2) was added to the proteome chip and immediately covered by a hydrophobic plastic cover slip (GRACE BIO-LABS™, USA). After trapped air bubbles were removed, the chip was incubated in a humidity chamber in the dark at room temperature (“RT”) for one hour. To remove the cover slip, the chip was immersed into large volume of PBS buffer(>50 ml), so that the slip would float away. The chip was then moved to a second PBS bath (>50 ml) and washed 3×5 min with shaking in the dark at RT. To completely remove the liquid on the chip, the chip was spun to dryness at 1500-2000 rpm for 5-10 min at RT.

RNA-polyA+ = test: Yeast proteome chip probed with biotin-labeled polyA+ RNA; details: Cy3-streptavidin
Excerpt: as §1, §2
RNA-polyA^+ from exponentially growing cells was labeled with biotin and used to probe the proteome microarray. The positive signals were detected using Cy3-streptavidin. […] In addition to proteins that likely directly or indirectly interact with RNA, we found two transcription factors (Bur6p and Tos8p), one transcriptional silencer (Hst3p), six other proteins encoded by known ORFs, and seven proteins from uncharacterized ORFs.

Row | Molecule | calmodulin binding (calmodulin) | binding of genomic DNA probe (total yeast genomic DNA) | binding of polyA+ RNA probe (RNA-polyA+)
1 | Cmk2p: yeast calcium/calmodulin-dependent serine/threonine protein kinase (protein, UniProt P22517 1-447, looked up) Calcium/calmodulin-dependent …: MPKESEVINSEFHVDVQDPERLNGHPVAKFINKLSGQPESYVNRTNYIFGRTLGAGSFGVVRQARKLSTNEDVAIKILLKKALQGNNVQLQMLYEELSILQKLSHPNIVSFKDWFESKDKFYIVTQLATGGELFDRILSRGKFTEVDAVEIIVQILGAVEYMHSKNVVHRDLKPENVLYVDKSENSPLVIADFGIAKQLKGEEDLIYKAAGSLGYVAPEVLTQDGHGKPCDIWSIGVITYTLLCGYSPFIAESVEGFMEECTASRYPVTFHMPYWDNISIDVKRFILKALRLNPADRPTATELLDDPWITSKRVETSNILPDVKKGFSLRKKLRDAIEIVKLNNRIKRLRNMYSLGDDGDNDIEENSLNESLLDGVTHSLDDLRLQSQKKGGELTEEQMKLKSALTKDAFVQIVKAATKNKHKVLAGEEEDDSKKTLHDDRESKSED | identified | – | –
2 | Cmp2p: one of the two yeast calcineurins (protein, left off: a dimerising Fc or GST, one of the two yeast calcineurins) MSSDAIRNTEQINAAIKIIENKTERPQSSTTPIDSKASTVAAANSTATETSRDLTQYTLDDGRVVSTNRRIMNKVPAITSHVPTDEELFQPNGIPRHEFLRDHFKREGKLSAAQAARIVTLATELFSKEPNLISVPAPITVCGDIHGQYFDLLKLFEVGGDPATTSYLFLGDYVDRGSFSFECLIYLYSLKLNFNDHFWLLRGNHECKHLTSYFTFKNEMLHKYNLDIYEKCCESFNNLPLAALMNGQYLCVHGGISPELNSLQDINNLNRFREIPSHGLMCDLLWADPIEEYDEVLDKDLTEEDIVNSKTMVPHHGKMAPSRDMFVPNSVRGCSYAFTYRAACHFLQETGLLSIIRAHEAQDAGYRMYKNTKTLGFPSLLTLFSAPNYLDTYNNKAAILKYENNVMNIRQFNMTPHPYWLPDFMDVFTWSLPFVGEKVTEMLVAILNICTEDELENDTPVIEELVGTDKKLPQAGKSEATPQPATSASPKHASILDDEHRRKALRNKILAVAKVSRMYSVLREETNKVQFLKDHNSGVLPRGALSNGVKGLDEALSTFERARKHDLINEKLPPSLDELKNENKKYYEKVWQKVHEHDAKNDSK | identified | – | –
3 | Dst1p: yeast protein with a role in transcription elongation (protein, UniProt P07273 1-309, looked up) Transcription elongation …: MDSKEVLVHVKNLEKNKSNDAAVLEILHVLDKEFVPTEKLLRETKVGVEVNKFKKSTNVEISKLVKKMISSWKDAINKNKRSRQAQQHHQDHAPGNAEDKTTVGESVNGVQQPASSQSDAMKQDKYVSTKPRNSKNDGVDTAIYHHKLRDQVLKALYDVLAKESEHPPQSILHTAKAIESEMNKVNNCDTNEAAYKARYRIIYSNVISKNNPDLKHKIANGDITPEFLATCDAKDLAPAPLKQKIEEIAKQNLYNAQGATIERSVTDRFTCGKCKEKKVSYYQLQTRSADEPLTTFCTCEACGNRWKFS | identified | – | –
4 | Bur6p: alpha-subunit of the NC2 (Dr1/Drap1) repressor of class II transcription (protein, UniProt P40096 1-142, looked up) Negative cofactor 2 complex …: MADQVPVTTQLPPIKPEHEVPLDAGGSPVGNMGTNSNNNNELGDVFDRIKTHFPPAKVKKIMQTDEDIGKVSQATPVIAGRSLEFFIALLVKKSGEMARGQGTKRITAEILKKTILNDEKFDFLREGLCVEEGQTQPEEESA | – | identified | bound both the DNA and RNA probes
5 | Smd1p: U1 snRNP component (protein, UniProt Q02260 1-146, looked up) Small nuclear …: MKLVNFLKKLRNEQVTIELKNGTTVWGTLQSVSPQMNAILTDVKLTLPQPRLNKLNSNGIAMASLYLTGGQQPTASDNIASLQYINIRGNTIRQIILPDSLNLDSLLVDQKQLNSLRRSGQIANDPSKKRRRDFGAPANKRPRRGL | – | – | identified
6 | Tos8p: yeast transcription factor suggested to be involved in RNA splicing and processing (protein, UniProt P53147 1-276, looked up) Homeobox protein TOS8: MGTSIVNLNQKIELPPIQVLFESLNRENETKPHFEERRLYQPNPSFVPRTNIAVGSPVNPVPVSSPVFFIGPSPQRSIQNHNAIMTQNIRQYPVIYNNNREVISTGERNYIITVGGPPVTSSQPEYEHISTPNFYQEQRLAQPHPVNESMMIGGYTNPQPISISRGKMLSGNISTNSVRGSNNGYSAKEKKHKAHGKRSNLPKATVSILNKWLHEHVNNPYPTVQEKRELLAKTGLTKLQISNWFINARRRKIFSGQNDANNFRRKFSSSTNLAKF | – | – | identified
7 | Hst3p: transcriptional silencer (protein, UniProt P53687 1-447, looked up) NAD-dependent histone …: MTSVSPSPPASRSGSMCSDLPSSLQTEKLAHIIGLDADDEVLRRVTKQLSRSRRIACLTGAGISCNAGIPDFRSSDGLYDLVKKDCSQYWSIKSGREMFDISLFRDDFKISIFAKFMERLYSNVQLAKPTKTHKFIAHLKDRNKLLRCYTQNIDGLEESIGLTLSNRKLPLTSFSSHWKNLDVVQLHGDLKTLSCTKCFQTFPWSRYWSRCLRRGELPLCPDCEALINKRLNEGKRTLGSNVGILRPNIVLYGENHPSCEIITQGLNLDIIKGNPDFLIIMGTSLKVDGVKQLVKKLSKKIHDRGGLIILVNKTPIGESSWHGIIDYQIHSDCDNWVTFLESQIPDFFKTQDQIKKLRQLKREASDLRKQMKAQKDSIGTPPTTPLRTAQGIDIQGNNELNTKIKSLNTVKRKILSPENSSEEDEEENLDTRKRAKIRPTFGDNQAS | – | – | identified
